# Tests used:
# [1] = biological target: FG domain comprising 52 GLFG 12mer repeat units; assay: FG phase partitioning (confocal microscopy); FG domain phase-separated by dilution from guanidinium hydrochloride, then fluorescent probe added; 50 mM Tris/HCl pH 7.5, 250 mM NaCl, 1 mM IP6; scanned after 1 h; partition coefficient = signal in the FG particle : outside
# [2] = biological target: disulfide-stabilized HIV-1 CA hexamer (CA-P1A, A14C, E45C, W184A, M185A) (HIV-1); assay: SEC; Superdex 200 increase, 20 mM Tris/HCl pH 8.0, 150 mM NaCl, 100 µM IP6; peak fraction seen by negative-stain EM; disulfide-stabilised hexamer
Substance,partition coefficient (in:out) [1],stoichiometry N [2]
40 nm capsid spheres (CA-P1A/N21C/A22C) labelled with CA–EGFP (complex),> 300,–
"capsid-like particles (CLPs) assembled from wild-type CA, with encapsulated mCherry (complex)",> 750,–
"disulfide-stabilized HIV-1 CA hexamer (CA-P1A, A14C, E45C, W184A, M185A) (complex)",–,6
mCherry,< 0.05,–

# Source: paper PMC10881386
